For assay [1], the target named is T1, human PD-L1 (human, UniProt Q9NZQ7 19-290).
T1 construct: whole, on cells; also called hPD-L1; CD274
Put plainly: FACS, NCI-H226 cells. How it is done:
(§1) Specifically, the cells expressing PD-L1 were digested and resuspended in PBS buffer containing 2% BSA. The cells were adjusted to a cell density of 1×10⁶ cells/mL, respectively. The cells were seeded in a 96-well V-bottom plate (Corning, #3894) at 100 μL/well, and the antibody to be tested at 2×final concentration with 4-fold concentration gradient dilution was then added at 100 μL/well. The cells were incubated at 4° C. for 2 hours in the dark. After the incubation, the cells were rinsed twice by adding pre-chilled PBS containing 2% BSA at 100 μL/well, and centrifuged at 500 g at 4° C. for 5 minutes, and the supernatant was discarded. […] The cells were washed twice by adding pre-chilled PBS containing 2% BSA at 100 µL/well, and centrifuged at 500 g at 4° C. for 5 minutes, and the supernatant was discarded. Finally, the cells were resuspended in pre-chilled PBS buffer containing 2% BSA at 200 μL/well. The fluorescence signal values were read using a BD FACS CANTOII flow cytometer or ACEA NovoCyte flow cytometer, and the data were processed and analyzed using FlowJo v10 software (FlowJo, LLC).
(Flow cytometry measures light scatter and fluorescence of single cells or particles in a stream.)

A further assay has as its target T2, cynomolgus monkey PD-L1 (cynomolgus monkey).
T2 construct: whole, on cells; also called cyPD-L1
Put plainly: FACS, CHO-K1/cyPD-L1 cells. How it is done:
as §1

Another assay has as its target T3, cynomolgus monkey CD40 (cynomolgus monkey).
T3 construct: whole, on cells; also called cyCD40
Put plainly: FACS, CHO-K1/cyCD40 cells. On the procedure:
(§2) The cells were incubated at 4° C. for 1 hours in the dark. After the incubation, the cells were rinsed twice by adding pre-chilled PBS at 100 μL/well, and centrifuged at 500 g at 4° C. for 5 minutes, and the supernatant was discarded. Then, a fluorescent secondary antibody (goat anti-human IgG (H+L) secondary antibody, Alexa Fluor® 488 conjugate, Invitrogen, #A11013, 1:1000 dilution) was added at 100 μL/well, and the cells were incubated at 4° C. for 30 minutes in the dark. The cells were washed twice with pre-chilled PBS at 200 μL/well, and centrifuged at 500 g at 4° C. for 5 minutes, and the supernatant was discarded. Finally, the cells were resuspended in pre-chilled PBS at 200 μL/well. The fluorescence signal values were read using a BD FACS CANTOII flow cytometer or ACEA NovoCyte flow cytometer, and the data were processed and analyzed using FlowJo v10 software (FlowJo, LLC).

Assay [2] deals with T4, human CD40 (human, UniProt P25942 21-277).
T4 construct: whole, on cells; also called hCD40; TNFRSF5
T4 sequence (P25942 21-277): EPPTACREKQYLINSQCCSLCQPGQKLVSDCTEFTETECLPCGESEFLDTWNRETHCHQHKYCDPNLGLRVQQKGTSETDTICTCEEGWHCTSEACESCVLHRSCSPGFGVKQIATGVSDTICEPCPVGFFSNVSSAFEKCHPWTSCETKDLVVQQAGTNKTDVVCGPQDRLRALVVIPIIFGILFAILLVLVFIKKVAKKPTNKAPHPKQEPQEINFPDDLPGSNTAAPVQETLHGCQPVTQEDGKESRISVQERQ
Put plainly: FACS, Raji cells. On the procedure:
as §2

For assay [3], the target named is T4, human CD40. Put plainly: FACS, CHO-K1/hCD40 cells. How it is done: as §2
In assay [4] the target is T1, human PD-L1. Put plainly: cell-based or functional assay.
Assay [5] addresses T1, human PD-L1. Put plainly: FACS, CHO-K1/hPD-L1 cells. How it is done:
as §1

T1 sequence (Q9NZQ7 19-290): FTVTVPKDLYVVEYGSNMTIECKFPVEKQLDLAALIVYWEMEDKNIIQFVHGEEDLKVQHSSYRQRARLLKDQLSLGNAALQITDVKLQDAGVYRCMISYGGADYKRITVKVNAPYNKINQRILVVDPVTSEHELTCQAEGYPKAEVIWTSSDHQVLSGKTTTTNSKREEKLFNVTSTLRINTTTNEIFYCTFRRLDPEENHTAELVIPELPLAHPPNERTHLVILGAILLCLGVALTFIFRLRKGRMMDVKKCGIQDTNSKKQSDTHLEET

B1: PR007280 (bispecific antibody, human IgG1, kappa)
heavy: QVQLVESGGGVVQPGMSLRLSCAASGFDFSSYGMYWVRQAPGKGQEWVASIRYTGTEKHYADSVKGRFTISRDNSKNTLYLEMNSLRVEDTAVYYCAKNRAIFGVVPDASDIRGQGTMVTVSSGGGGSQVQLVQSGAEVKKPGASVKVSCKASGYTFAGYYMYWVRQAPGQGLEWMGWINPDSGAPTYAQKFQGRVTMTRDTSISTAYMELSRLRSDDTAVYYCAREKIYYGSGNYYPSFDYWGQGTLVTVSSASTKGPSVFPLAPSSKSTSGGTAALGCLVKDYFPEPVTVSWNSGALTSGVHTFPAVLQSSGLYSLSSVVTVPSSSLGTQTYICNVNHKPSNTKVDKKVEPKSCDKTHTCPPCPAPEAAGAPSVFLFPPKPKDTLMISRTPEVTCVVVDVSHEDPEVKFNWYVDGVEVHNAKTKPREEQYNSTYRVVSVLTVLHQDWLNGKEYKCKVSNKALPAPIEKTISKAKGQPREPQVYTLPPSREEMTKNQVSLTCLVKGFYPSDIAVEWESNGQPENNYKTTPPVLDSDGSFFLYSKLTVDKSRWQQGNVFSCSVMHEALHNHYTQKSLSLSPGK
light: DIQLTQSPSFLSASVGDRVTITCRASQGISSYLAWYQQKPGKAPKLLIYAASTLQSGVPSRFSGSGSGTEFTLTISSLQPEDFATYYCQQLVSYPWTFGQGTKVEIKRTVAAPSVFIFPPSDEQLKSGTASVVCLLNNFYPREAKVQWKVDNALQSGNSQESVTEQDSKDSTYSLSSTLTLSKADYEKHKVYACEVTHQGLSSPVTKSFNRGEC
notes: VH of PR006245 (PD-L1) - GS_5 - heavy chain of CD40 IgG PR006504; human IgG1 L234A/L235A/G237A; also called PD-L1×CD40
For orientation: EC50 means the midpoint of the concentration-response curve. As for B1, the EC50 with human PD-L1 [1] was determined as 1.02 nM; with cynomolgus monkey PD-L1, 1.02 nM; in the assay with cynomolgus monkey CD40, 2.65 nM; in the assay with human CD40 [2] it was 1.65 nM; with human CD40 [3], 3.83 nM; in the assay with human PD-L1 [5], 1.58 nM. The “Maximum MFI” value with human PD-L1 [1] came to 1020 MFI; in the assay with cynomolgus monkey PD-L1, 4830 MFI; with cynomolgus monkey CD40 it was 50100 MFI; with human CD40 [2], 7700 MFI; with human CD40 [3] it was 15000 MFI; with human PD-L1 [5] it was 20200 MFI. Besides, the “EC50, Jurkat-NFAT-hPD1 reporter” value in the assay with human PD-L1 [4] worked out at 0.295 nM. For the same molecule, in the assay with human PD-L1 [4], the “Maximum (RLU), Jurkat-NFAT-hPD1 reporter” value came to 2560 RLU.

B2: PR007556 (bispecific antibody, human IgG1, kappa)
heavy: QVQLVESGGGVVQPGMSLRLSCAASGFDFSSYGMYWVRQAPGKGQEWVASIRYTGTEKHYADSVKGRFTISRDNSKNTLYLEMNSLRVEDTAVYYCAKNRALFGVIPDDSDIRGQGTMVTVSSGGGGSQVQLVQSGAEVKKPGASVKVSCKASGYTFAGYYMYWVRQAPGQGLEWMGWINPDSGAPTYAQKFQGRVTMTRDTSISTAYMELSRLRSDDTAVYYCAREKIYYGSGNYYPSFDYWGQGTLVTVSSASTKGPSVFPLAPSSKSTSGGTAALGCLVKDYFPEPVTVSWNSGALTSGVHTFPAVLQSSGLYSLSSVVTVPSSSLGTQTYICNVNHKPSNTKVDKKVEPKSCDKTHTCPPCPAPEAAGAPSVFLFPPKPKDTLMISRTPEVTCVVVDVSHEDPEVKFNWYVDGVEVHNAKTKPREEQYNSTYRVVSVLTVLHQDWLNGKEYKCKVSNKALPAPIEKTISKAKGQPREPQVYTLPPSREEMTKNQVSLTCLVKGFYPSDIAVEWESNGQPENNYKTTPPVLDSDGSFFLYSKLTVDKSRWQQGNVFSCSVMHEALHNHYTQKSLSLSPGK
light: DIQLTQSPSFLSASVGDRVTITCRASQGISSYLAWYQQKPGKAPKLLIYAASTLQSGVPSRFSGSGSGTEFTLTISSLQPEDFATYYCQQLFSYPWTFGQGTKVEIKRTVAAPSVFIFPPSDEQLKSGTASVVCLLNNFYPREAKVQWKVDNALQSGNSQESVTEQDSKDSTYSLSSTLTLSKADYEKHKVYACEVTHQGLSSPVTKSFNRGEC
notes: VH of PR006248 (PD-L1) - GS_5 - heavy chain of CD40 IgG PR006496; human IgG1 L234A/L235A/G237A; also called PD-L1×CD40
As for B2, the EC50 was determined as 0.452 nM with human PD-L1 [1]; 0.683 nM with cynomolgus monkey PD-L1; 2.58 nM in the assay with cynomolgus monkey CD40; 1.28 nM with human CD40 [2]; 1.69 nM with human CD40 [3]; 1.03 nM with human PD-L1 [5]. Further, the “Maximum MFI” value in the assay with human PD-L1 [1] stood at 861 MFI; with cynomolgus monkey PD-L1, 4720 MFI; with cynomolgus monkey CD40, 55500 MFI; with human CD40 [2] it was 6560 MFI; with human CD40 [3], 14600 MFI; in the assay with human PD-L1 [5], 20100 MFI. Moreover, in the assay with human PD-L1 [4], the “EC50, Jurkat-NFAT-hPD1 reporter” value stood at 0.225 nM. Besides, in the assay with human PD-L1 [4], the “Maximum (RLU), Jurkat-NFAT-hPD1 reporter” value was found to be 4080 RLU.

B3: PR007281 (bispecific antibody, human IgG1, kappa)
heavy: QVQLVESGGGVVQPGMSLRLSCAASGFDFSSYGMYWVRQAPGKGQEWVASIRYTGTEKHYADSVKGRFTISRDNSKNTLYLEMNSLRVEDTAVYYCAKNRAIFGVIPDDSDIRGQGTMVTVSSGGGGSQVQLVQSGAEVKKPGASVKVSCKASGYTFAGYYMYWVRQAPGQGLEWMGWINPDSGAPTYAQKFQGRVTMTRDTSISTAYMELSRLRSDDTAVYYCAREKIYYGSGNYYPSFDYWGQGTLVTVSSASTKGPSVFPLAPSSKSTSGGTAALGCLVKDYFPEPVTVSWNSGALTSGVHTFPAVLQSSGLYSLSSVVTVPSSSLGTQTYICNVNHKPSNTKVDKKVEPKSCDKTHTCPPCPAPEAAGAPSVFLFPPKPKDTLMISRTPEVTCVVVDVSHEDPEVKFNWYVDGVEVHNAKTKPREEQYNSTYRVVSVLTVLHQDWLNGKEYKCKVSNKALPAPIEKTISKAKGQPREPQVYTLPPSREEMTKNQVSLTCLVKGFYPSDIAVEWESNGQPENNYKTTPPVLDSDGSFFLYSKLTVDKSRWQQGNVFSCSVMHEALHNHYTQKSLSLSPGK
light: DIQLTQSPSFLSASVGDRVTITCRASQGISSYLAWYQQKPGKAPKLLIYAASTLQSGVPSRFSGSGSGTEFTLTISSLQPEDFATYYCQQLVSYPWTFGQGTKVEIKRTVAAPSVFIFPPSDEQLKSGTASVVCLLNNFYPREAKVQWKVDNALQSGNSQESVTEQDSKDSTYSLSSTLTLSKADYEKHKVYACEVTHQGLSSPVTKSFNRGEC
notes: VH of PR006246 (PD-L1) - GS_5 - heavy chain of CD40 IgG PR006504; human IgG1 L234A/L235A/G237A; also called PD-L1×CD40
As to B3, the 50% effective concentration (EC50) with human PD-L1 [1] turned out to be 0.503 nM; with cynomolgus monkey PD-L1 it was 0.632 nM; in the assay with cynomolgus monkey CD40, 3.63 nM; in the assay with human CD40 [2], 1.46 nM; with human CD40 [3] it was 2.13 nM; with human PD-L1 [5], 1.13 nM. For the same molecule, the “Maximum MFI” value with human PD-L1 [1] stood at 921 MFI; with cynomolgus monkey PD-L1, 4610 MFI; with cynomolgus monkey CD40 it was 65000 MFI; with human CD40 [2], 7600 MFI; in the assay with human CD40 [3], 14200 MFI; with human PD-L1 [5], 19900 MFI. Moreover, in the assay with human PD-L1 [4], the “EC50, Jurkat-NFAT-hPD1 reporter” value worked out at 0.19 nM. For the same molecule, the “Maximum (RLU), Jurkat-NFAT-hPD1 reporter” value with human PD-L1 [4] is 3840 RLU.

B4: PR007282 (bispecific antibody, human IgG1, kappa)
heavy: QVQLVESGGGVVQPGMSLRLSCAASGFDFSSYGMYWVRQAPGKGQEWVASIRYTGTEKHYADSVKGRFTISRDNSKNTLYLEMNSLRVEDTAVYYCAKNRALFGVIPDASDIRGQGTMVTVSSGGGGSQVQLVQSGAEVKKPGASVKVSCKASGYTFAGYYMYWVRQAPGQGLEWMGWINPDSGAPTYAQKFQGRVTMTRDTSISTAYMELSRLRSDDTAVYYCAREKIYYGSGNYYPSFDYWGQGTLVTVSSASTKGPSVFPLAPSSKSTSGGTAALGCLVKDYFPEPVTVSWNSGALTSGVHTFPAVLQSSGLYSLSSVVTVPSSSLGTQTYICNVNHKPSNTKVDKKVEPKSCDKTHTCPPCPAPEAAGAPSVFLFPPKPKDTLMISRTPEVTCVVVDVSHEDPEVKFNWYVDGVEVHNAKTKPREEQYNSTYRVVSVLTVLHQDWLNGKEYKCKVSNKALPAPIEKTISKAKGQPREPQVYTLPPSREEMTKNQVSLTCLVKGFYPSDIAVEWESNGQPENNYKTTPPVLDSDGSFFLYSKLTVDKSRWQQGNVFSCSVMHEALHNHYTQKSLSLSPGK
light: DIQLTQSPSFLSASVGDRVTITCRASQGISSYLAWYQQKPGKAPKLLIYAASTLQSGVPSRFSGSGSGTEFTLTISSLQPEDFATYYCQQLVSYPWTFGQGTKVEIKRTVAAPSVFIFPPSDEQLKSGTASVVCLLNNFYPREAKVQWKVDNALQSGNSQESVTEQDSKDSTYSLSSTLTLSKADYEKHKVYACEVTHQGLSSPVTKSFNRGEC
notes: VH of PR006247 (PD-L1) - GS_5 - heavy chain of CD40 IgG PR006504; human IgG1 L234A/L235A/G237A; also called PD-L1×CD40
Take B4: the EC50 in the assay with human PD-L1 [1] came out at 0.61 nM; with cynomolgus monkey PD-L1, 0.834 nM; with cynomolgus monkey CD40, 2.43 nM; with human CD40 [2] it was 1.45 nM; with human CD40 [3], 1.88 nM; with human PD-L1 [5] it was 1.46 nM. Further, the “Maximum MFI” value was 983 MFI with human PD-L1 [1]; 4620 MFI with cynomolgus monkey PD-L1; 50100 MFI with cynomolgus monkey CD40; 7520 MFI in the assay with human CD40 [2]; 13500 MFI in the assay with human CD40 [3]; 20400 MFI in the assay with human PD-L1 [5]. In the assay with human PD-L1 [4], the “EC50, Jurkat-NFAT-hPD1 reporter” value came to 0.188 nM. Further, the “Maximum (RLU), Jurkat-NFAT-hPD1 reporter” value with human PD-L1 [4] amounted to 2480 RLU.

These data come from patent US20250215089A1 (HARBOUR BIOMED SHANGHAI, published 2025).
